# Reference: patent publication US6406872
# B1: UNC-49B GABA receptor subunit (UNC-49B.1 isoform) (receptor)
# chain: QDEDSHINTQLLSSVLDRLTNRTTYDKRLRPRYGEKPVDVGITIHVSSISAVSEVDMDFTLDFYMRQTWQDPRLAFGSLDLGLSKEIDSLTVGVDYLDRLWKPDTFFPNEKKSFFHLATTHNSFLRIEGDGTVYTSQRLTVTATCPMDLKLFPMDSQHCKLEIESYGYETKDIDYYWGKKRTDLEITAVKFDTFQLPQFQPTLYFVNTTKAETSSGKYVRLALEVILVRNMGFYTMNIVIPSILIVTISWVSFWLNREASPARVGLGVTTVLTMTTLITTTNNSMPKVSYVKGLDVFLNFCFVMVFASLLEYAIVSYMNKRLVLRREKRRKAAEQQQRNEMPMFNASPKAANNNADLYFAGHNSSMNPLMEIPENCDCRTIPMMQHPRLVTDGAHTLWPAPFARPKKASKTCCQRWTPAKIDKLSRYGFPLSFSIFNIVYWLYMKYLSLNSSDKIQENDKWQQIH
# Key:
# [1] = target: the molecule itself; assay: cell-based or functional assay
# [2] = target: B1; assay: cell-based or functional assay
"EC50 (µM) of GABA, two-electrode voltage clamp, Xenopus oocytes co-injected with UNC-49B and UNC-49C RNA [2]",Binder,"EC50 (µM) of GABA, two-electrode voltage clamp, Xenopus oocytes injected with UNC-49B.1 mRNA alone [1]"
,B1,43.7 µM
108 µM,UNC-49C GABA receptor subunit (receptor) QDEDSHINTQLLSSVLDRLTNRTTYDKRLRPRYGEKPVDVGITIHVSSISAVSEVDMDFTLDFYMRQTWQDPRLAFGSLDLGLSKEIDSLTVGVDYLDRLWKPDTFFPNEKKSFFHLATTHNSFLRIEGDGTVYTSQRLTVTATCPMDLKLFPMDSQHCKLEIESYAYSTAEIEYKWCTSKEPNCSTAVKADANIELSSYKFTKICQKRTLASTSSGTYSRLRVSFIFDRDSGFYFLQIFFPASLVVVLSWISFWINRDSAPSRTLIGTMTVLTETHLMTGTNRRLPPVAYVKAVDVFLGFCYLLVILALIEYACVAYSKKKNEDRRRREKKTEHKPAPPTPDILHDVRLAECTCNAAPTSIIAVIKQSNRFCVSHSHIDIVSRAAFPLVFILFNTLFWLILLYKSKRLPYISEHEGDRCDAPDLH,
